# Source: US20080199426
# System: Hirudin (Calbiochem 377853)
substance,measurement,value
thrombin activated from 10% human plasma on HUVEC monolayers,cleavage of the chromogenic thrombin substrate (absorbance at 405 nm),completely blocked the cleavage of the chromogenic thrombin substrate
